Laboratory results reported in patent US20260265379A1 (IMCHECK THERAPEUTICS, published 2026).

How the values were obtained:
recombinant human BTN3A1 = target: T1, recombinant human BTN3A1 (human, UniProt O00481 30-254); test: SPR
T1 construct: Soluble form of the antigen used in SPR; also called rhBTN3A1; recombinant BTN3A1 protein

recombinant human PD-L1 = target: T2, recombinant human PD-L1 (human, UniProt Q9NZQ7 19-239, limits assumed); test: SPR
T2 construct: Soluble antigen in SPR; also called rhPD-L1

[1] = target: T3, PD-L1 at the surface of transduced cells (UniProt Q9NZQ7 19-290, limits assumed); test: cell-based or functional assay
[2] = target: T3, PD-L1 at the surface of transduced cells; test: flow cytometry, CHO-PD-L1 cells
[3] = target: T4, BTN3A1 at the surface of HEK-BTN3A1 cells (human, UniProt O00481 30-513); test: flow cytometry, HEK-BTN3A1 cells
T4 construct: HEK 293T BTN2A/BTN3A KO cells transduced with a BTN3A1 expressing vector
T4 sequence (O00481 30-513 limits assumed): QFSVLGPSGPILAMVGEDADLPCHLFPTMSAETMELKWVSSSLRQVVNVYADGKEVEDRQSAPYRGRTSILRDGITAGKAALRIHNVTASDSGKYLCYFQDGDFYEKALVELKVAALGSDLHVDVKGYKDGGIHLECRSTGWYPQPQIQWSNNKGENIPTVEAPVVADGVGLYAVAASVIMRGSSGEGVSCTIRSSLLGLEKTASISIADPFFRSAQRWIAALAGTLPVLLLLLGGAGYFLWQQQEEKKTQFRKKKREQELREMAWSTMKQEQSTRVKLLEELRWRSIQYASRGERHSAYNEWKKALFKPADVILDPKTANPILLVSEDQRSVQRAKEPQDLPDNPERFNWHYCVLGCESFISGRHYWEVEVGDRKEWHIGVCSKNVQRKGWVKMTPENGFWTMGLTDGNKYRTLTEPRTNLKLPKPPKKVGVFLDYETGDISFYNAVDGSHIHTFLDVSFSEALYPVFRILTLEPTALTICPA

T1 sequence (O00481 30-254 limits assumed): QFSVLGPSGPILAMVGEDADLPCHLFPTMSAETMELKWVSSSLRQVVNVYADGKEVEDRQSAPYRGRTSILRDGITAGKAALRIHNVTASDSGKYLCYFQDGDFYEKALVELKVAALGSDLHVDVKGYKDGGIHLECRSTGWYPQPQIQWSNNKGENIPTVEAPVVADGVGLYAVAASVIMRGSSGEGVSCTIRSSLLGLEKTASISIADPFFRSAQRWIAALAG
T3 sequence (Q9NZQ7 19-290 limits assumed): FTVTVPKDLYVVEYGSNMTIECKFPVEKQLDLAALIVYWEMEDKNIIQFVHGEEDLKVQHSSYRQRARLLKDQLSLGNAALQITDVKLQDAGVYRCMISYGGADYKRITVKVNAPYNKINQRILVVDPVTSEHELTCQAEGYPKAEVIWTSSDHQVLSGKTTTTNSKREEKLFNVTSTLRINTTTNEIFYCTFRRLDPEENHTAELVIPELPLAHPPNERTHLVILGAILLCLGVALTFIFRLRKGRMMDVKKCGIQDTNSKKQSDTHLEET
T2 sequence (Q9NZQ7 19-239 limits assumed): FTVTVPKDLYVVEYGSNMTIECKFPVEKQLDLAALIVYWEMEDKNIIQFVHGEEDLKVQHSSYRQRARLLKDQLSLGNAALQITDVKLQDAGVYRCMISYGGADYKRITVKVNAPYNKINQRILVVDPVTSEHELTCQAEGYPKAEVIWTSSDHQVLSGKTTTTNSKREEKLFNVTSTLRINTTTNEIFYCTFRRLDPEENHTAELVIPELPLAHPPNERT

Binder | Kd (recombinant human BTN3A1) | Kd (recombinant human PD-L1) | Jurkat-PD-1 activation at 10 nM [1] | Jurkat-PD-1 activation at 100 nM [1] | MFI at 10 nM [2] | MFI at 100 nM [2] | MFI at 10 nM [3] | MFI at 100 nM [3]
bsAb011 (bispecific antibody, IgG anti-BTN3A, scFv anti-PD-L1) heavy: QVQLVQSGAEVKKPGASVKLSCKASGYIFTRYYMYWVKQRPGQGLEWIGEINPNNGGTKFNEKFKNRATLTVDKSISTAYMELSRLRSDDTAVYYCSREDDYDGTPFAMDYWGQGTLVTVSSASTKGPSVFPLAPSSKSTSGGTAALGCLVKDYFPEPVTVSWNSGALTSGVHTFPAVLQSSGLYSLSSVVTVPSSSLGTQTYICNVNHKPSNTKVDKRVEPKSCDKTHTCPPCPAPEFEGGPSVFLFPPKPKDTLMISRTPEVTCVVVDVSHEDPEVKFNWYVDGVEVHNAKTKPREEQYNSTYRVVSVLTVLHQDWLNGKEYKCKVSNKALPASIEKTISKAKGQPREPQVYTLPPSREEMTKNQVSLTCLVKGFYPSDIAVEWESNGQPENNYKTTPPVLDSDGSFFLYSKLTVDKSRWQQGNVFSCSVMHEALHNHYTQKSLSLSPG light: not shown | 0.504 nM | 0.043 nM | 6.4 fold-change to medium | 2.3 fold-change to medium | 682000 MFI | 722000 MFI | 512000 MFI | 1.14e+06 MFI
bsAb070 (bispecific antibody, not shown: IgG1 CH1-hinge-CH2-CH3; CH2-CH3 (Fc)) heavy 1: EVQLVESGGGLVQPGGSLRLSCAASGFTFSRYWMSWVRQAPGKGLEWVANIKQDGSEKYYVDSVKGRFTISRDNAKNSLYLQMNSLRAEDTAVYYCAREGGWFGELAFDYWGQGTLVTVSS heavy 2: QVQLVQSGAEVKKPGASVKLSCKASGYIFTRYYMYWVKQRPGQGLEWIGEINPNNGGTKFNEKFKNRATLTVDKSISTAYMELSRLRSDDTAVYYCSREDDYDGTPFAMDYWGQGTLVTVSSGGGGSGGGGSGGGGSGGGGSDIQMTQSPSSLSASVGDRVTITCHASQNINVWLSWYQQKPGKAPKLLIYKASNLHTGVPSRFTGSGSGTDFTFTISSLQPEDIATYYCQQGQTYPYTFGQGTKLEIKGGGGSGGGGSGGGGSGGGGS light: EIVLTQSPGTLSLSPGERATLSCRASQRVSSSYLAWYQQKPGQAPRLLIYDASSRATGIPDRFSGSGSGTDFTLTISRLEPEDFAVYYCQQYGSLPWTFGQGTKVEIKRTVAAPSVFIFPPSDEQLKSGTASVVCLLNNFYPREAKVQWKVDNALQSGNSQESVTEQDSKDSTYSLSSTLTLSKADYEKHKVYACEVTHQGLSSPVTKSFNRGECGGGGSGGGGSGGGGSGGGGSDIQMTQSPSSLSASVGDRVTITCHASQNINVWLSWYQQKPGKAPKLLIYKASNLHTGVPSRFTGSGSGTDFTFTISSLQPEDIATYYCQQGQTYPYTFGQGTKLEIKGGGGSGGGGSGGGGSGGGGSQVQLVQSGAEVKKPGASVKLSCKASGYIFTRYYMYWVKQRPGQGLEWIGEINPNNGGTKFNEKFKNRATLTVDKSISTAYMELSRLRSDDTAVYYCSREDDYDGTPFAMDYWGQGTLVTVSS | 0.074 nM | 0.079 nM | – | – | 1.05e+06 MFI | 1.2e+06 MFI | 790000 MFI | 1e+06 MFI
bsAb035 (bispecific antibody, IgG anti-BTN3A, one scFv anti-PD-L1; not shown: IgG1 CH1-hinge-CH2-CH3) heavy (part 1 of 2): QVQLVQSGAEVKKPGASVKLSCKASGYIFTRYYMYWVKQRPGQGLEWIGEINPNNGGTKFNEKFKNRATLTVDKSISTAYMELSRLRSDDTAVYYCSREDDYDGTPFAMDYWGQGTLVTVSS heavy (part 2 of 2): GGGGSGGGGSGGGGSGGGGSEVQLVESGGGLVQPGGSLRLSCAASGFTFSRYWMSWVRQAPGKGLEWVANIKQDGSEKYYVDSVKGRFTISRDNAKNSLYLQMNSLRAEDTAVYYCAREGGWFGELAFDYWGQGTLVTVSSGGGGSGGGGSGGGGSGGGGSEIVLTQSPGTLSLSPGERATLSCRASQRVSSSYLAWYQQKPGQAPRLLIYDASSRATGIPDRFSGSGSGTDFTLTISRLEPEDFAVYYCQQYGSLPWTFGQGTKVEIK heavy: QVQLVQSGAEVKKPGASVKLSCKASGYIFTRYYMYWVKQRPGQGLEWIGEINPNNGGTKFNEKFKNRATLTVDKSISTAYMELSRLRSDDTAVYYCSREDDYDGTPFAMDYWGQGTLVTVSS light: not shown | 0.068 nM | 0.097 nM | 5 fold-change to medium | 7.9 fold-change to medium | 973000 MFI | 1.28e+06 MFI | 525000 MFI | 1.03e+06 MFI
bsAb040 (bispecific antibody, IgG anti-BTN3A, one scFv anti-PD-L1; not shown: IgG1 CH1-hinge-CH2-CH3) heavy (part 1 of 2): QVQLVQSGAEVKKPGASVKLSCKASGYIFTRYYMYWVKQRPGQGLEWIGEINPNNGGTKFNEKFKNRATLTVDKSISTAYMELSRLRSDDTAVYYCSREDDYDGTPFAMDYWGQGTLVTVSS heavy (part 2 of 2): GGGGSGGGGSGGGGSGGGGSEIVLTQSPGTLSLSPGERATLSCRASQRVSSSYLAWYQQKPGQAPRLLIYDASSRATGIPDRFSGSGSGTDFTLTISRLEPEDFAVYYCQQYGSLPWTFGQGTKVEIKGGGGSGGGGSGGGGSGGGGSEVQLVESGGGLVQPGGSLRLSCAASGFTFSRYWMSWVRQAPGKGLEWVANIKQDGSEKYYVDSVKGRFTISRDNAKNSLYLQMNSLRAEDTAVYYCAREGGWFGELAFDYWGQGTLVTVSS heavy: QVQLVQSGAEVKKPGASVKLSCKASGYIFTRYYMYWVKQRPGQGLEWIGEINPNNGGTKFNEKFKNRATLTVDKSISTAYMELSRLRSDDTAVYYCSREDDYDGTPFAMDYWGQGTLVTVSS light: not shown | 0.065 nM | 0.066 nM | 6 fold-change to medium | 7.5 fold-change to medium | 1.04e+06 MFI | 1.25e+06 MFI | 634000 MFI | 1.23e+06 MFI
bsAb055 (bispecific antibody, one Fab arm anti-BTN3A, one scFv anti-PD-L1; not shown: CH2-CH3 (Fc); IgG1 CH1-hinge-CH2-CH3) heavy 1: GGGGSGGGGSGGGGSGGGGSEVQLVESGGGLVQPGGSLRLSCAASGFTFSRYWMSWVRQAPGKGLEWVANIKQDGSEKYYVDSVKGRFTISRDNAKNSLYLQMNSLRAEDTAVYYCAREGGWFGELAFDYWGQGTLVTVSSGGGGSGGGGSGGGGSGGGGSEIVLTQSPGTLSLSPGERATLSCRASQRVSSSYLAWYQQKPGQAPRLLIYDASSRATGIPDRFSGSGSGTDFTLTISRLEPEDFAVYYCQQYGSLPWTFGQGTKVEIK heavy 2: QVQLVQSGAEVKKPGASVKLSCKASGYIFTRYYMYWVKQRPGQGLEWIGEINPNNGGTKFNEKFKNRATLTVDKSISTAYMELSRLRSDDTAVYYCSREDDYDGTPFAMDYWGQGTLVTVSS light: not shown | 0.076 nM | 0.108 nM | 5.8 fold-change to medium | 7.4 fold-change to medium | 820000 MFI | 984000 MFI | 344000 MFI | 862000 MFI
